# Experimental data taken from paper PMC2572221.
# Experiments:
# rat C3b (rat) [1] = biological target: rat C3b (rat)
# rat C3b (rat) [2] = assay: SPR; Biacore 3000; rat C3b (1000RU) covalently coupled to the chip through its internal thioester after deposition by a convertase on a nidus of human C3b (50RU); different concentrations of the sCrry proteins flowed over; KD from steady state analysis
Substance,"IH50 of inhibition of AP-mediated haemolysis of guinea pig erythrocytes by rat serum, in terms of Crry molarity (rat C3b (rat) [1])",Kd (rat C3b (rat) [2])
rCrry-Ig (Fc fusion),168 nM,–
soluble recombinant form of rat Crry containing the four N-terminal SCRs (domain or fragment),–,5.1 µM
